The text below walks through data of publication PMC4981022.

Like-named read-outs stand apart in the source and are kept apart here.

Test [1] addresses endogenous TRAPPC6A (TPC6A), human cells (human (endogenous in HEK293, BCC, SK-N-SH and other human cell lines)) (UniProt O75865). In words: western blotting (size of the bands); cytosol and nuclei of BCC cells, with or without UV irradiation; mitochondria of Jurkat T cells treated with PMA for 90 min.
Test [2] shares this target. Described as above. The source holds these as a separate data set.

In the case of “endogenous TRAPPC6A (TPC6A), human cells (from UniProt O75865 1-159) (natural protein)”, the stoichiometry N in test [1] amounted to 3; in test [2] it was 2.
